Columns and labels:
[1] = molecular target: gp70 env protein of amphotropic MLV (4070A envelope), on purified viral particles (amphotropic murine leukemia virus (4070A envelope)); experiment: ELISA on plate-bound MLV, dilution factor 10, Exp073-DTV Plate 1
[2] = molecular target: gp70 env protein of amphotropic MLV (4070A envelope), on purified viral particles (amphotropic murine leukemia virus (4070A envelope)); experiment: ELISA on plate-bound MLV, dilution factor 10, Exp074-DTV Plate 2
[3] = molecular target: gp70 env protein of amphotropic MLV (4070A envelope), on purified viral particles (amphotropic murine leukemia virus (4070A envelope)); experiment: ELISA on plate-bound MLV, dilution factor 50, Exp073-DTV Plate 1
[4] = molecular target: gp70 env protein of amphotropic MLV (4070A envelope), on purified viral particles (amphotropic murine leukemia virus (4070A envelope)); experiment: ELISA on plate-bound MLV, dilution factor 50, Exp122-Ana Plate 2
[5] = molecular target: gp70 env protein of amphotropic MLV (4070A envelope), on purified viral particles (amphotropic murine leukemia virus (4070A envelope)); experiment: ELISA on plate-bound MLV, dilution factor 250, Exp072-DTV Plate 1
[6] = molecular target: gp70 env protein of amphotropic MLV (4070A envelope), on purified viral particles (amphotropic murine leukemia virus (4070A envelope)); experiment: ELISA on plate-bound MLV, dilution factor 250, Exp074-DTV Plate 2
[7] = molecular target: gp70 env protein of amphotropic MLV (4070A envelope), on purified viral particles (amphotropic murine leukemia virus (4070A envelope)); experiment: ELISA on plate-bound MLV, dilution factor 250, Exp122-Ana Plate 2
[8] = molecular target: gp70 env protein of amphotropic MLV (4070A envelope), on purified viral particles (amphotropic murine leukemia virus (4070A envelope)); experiment: ELISA on plate-bound MLV, dilution factor 250, Exp125-Ana Plate 1
[9] = molecular target: gp70 env protein of amphotropic MLV (4070A envelope), on purified viral particles (amphotropic murine leukemia virus (4070A envelope)); experiment: ELISA on plate-bound MLV, dilution factor 250, Exp125-Ana Plate 2
[10] = molecular target: gp70 env protein of amphotropic MLV (4070A envelope), on purified viral particles (amphotropic murine leukemia virus (4070A envelope)); experiment: ELISA on plate-bound MLV, dilution factor 1250, Exp073-DTV Plate 1
[11] = molecular target: gp70 env protein of amphotropic MLV (4070A envelope), on purified viral particles (amphotropic murine leukemia virus (4070A envelope)); experiment: ELISA on plate-bound MLV, dilution factor 1250, Exp073-DTV Plate 2
[12] = molecular target: gp70 env protein of amphotropic MLV (4070A envelope), on purified viral particles (amphotropic murine leukemia virus (4070A envelope)); experiment: ELISA on plate-bound MLV, dilution factor 1250, Exp074-DTV Plate 1
[13] = molecular target: gp70 env protein of amphotropic MLV (4070A envelope), on purified viral particles (amphotropic murine leukemia virus (4070A envelope)); experiment: ELISA on plate-bound MLV, dilution factor 1250, Exp121-Ana Plate 2
[14] = molecular target: gp70 env protein of amphotropic MLV (4070A envelope), on purified viral particles (amphotropic murine leukemia virus (4070A envelope)); experiment: ELISA on plate-bound MLV, dilution factor 1250, Exp125-Ana Plate 2
[15] = molecular target: gp70 env protein of amphotropic MLV (4070A envelope), on purified viral particles (amphotropic murine leukemia virus (4070A envelope)); experiment: ELISA on plate-bound MLV, dilution factor 6250, Exp073-DTV Plate 2
[16] = molecular target: gp70 env protein of amphotropic MLV (4070A envelope), on purified viral particles (amphotropic murine leukemia virus (4070A envelope)); experiment: ELISA on plate-bound MLV, dilution factor 6250, Exp074-DTV Plate 2
[17] = molecular target: gp70 env protein of amphotropic MLV (4070A envelope), on purified viral particles (amphotropic murine leukemia virus (4070A envelope)); experiment: ELISA on plate-bound MLV, dilution factor 31250, Exp073-DTV Plate 2
[18] = molecular target: gp70 env protein of amphotropic MLV (4070A envelope), on purified viral particles (amphotropic murine leukemia virus (4070A envelope)); experiment: ELISA on plate-bound MLV, dilution factor 31250, Exp074-DTV Plate 2
[19] = molecular target: gp70 env protein of amphotropic MLV (4070A envelope), on purified viral particles (amphotropic murine leukemia virus (4070A envelope)); experiment: ELISA on plate-bound MLV, dilution factor 31250, Exp121-Ana Plate 1
[20] = molecular target: gp70 env protein of amphotropic MLV (4070A envelope), on purified viral particles (amphotropic murine leukemia virus (4070A envelope)); experiment: ELISA on plate-bound MLV, dilution factor 156250, Exp072-DTV Plate 2
[21] = molecular target: gp70 env protein of amphotropic MLV (4070A envelope), on purified viral particles (amphotropic murine leukemia virus (4070A envelope)); experiment: ELISA on plate-bound MLV, dilution factor 156250, Exp125-Ana Plate 1
[22] = molecular target: gp70 env protein of amphotropic MLV (4070A envelope), on purified viral particles (amphotropic murine leukemia virus (4070A envelope)); experiment: ELISA on plate-bound MLV, dilution factor 781250, Exp125-Ana Plate 1
[23] = molecular target: gp70 env protein of amphotropic MLV (4070A envelope), on purified viral particles (amphotropic murine leukemia virus (4070A envelope)); experiment: ELISA on plate-bound MLV, dilution factor 781250, Exp125-Ana Plate 2
[24] = molecular target: gp70 env protein of amphotropic MLV (4070A envelope), on purified viral particles (amphotropic murine leukemia virus (4070A envelope)); experiment: ELISA on plate-bound MLV, dilution factor 6250, inter-assay mean of six experiments
[25] = molecular target: gp70 env protein of amphotropic MLV (4070A envelope), on purified viral particles (amphotropic murine leukemia virus (4070A envelope)); experiment: ELISA on plate-bound MLV, dilution factor 156250, inter-assay mean of six experiments
[26] = molecular target: gp70 env protein of amphotropic MLV (4070A envelope), on purified viral particles (amphotropic murine leukemia virus (4070A envelope)); experiment: ELISA on plate-bound MLV, dilution factor 781250, inter-assay mean of six experiments

Chain of gp70 env protein of amphotropic MLV (4070A envelope), on purified viral particles (amphotropic murine leukemia virus (4070A envelope)) (P21995 whole entry): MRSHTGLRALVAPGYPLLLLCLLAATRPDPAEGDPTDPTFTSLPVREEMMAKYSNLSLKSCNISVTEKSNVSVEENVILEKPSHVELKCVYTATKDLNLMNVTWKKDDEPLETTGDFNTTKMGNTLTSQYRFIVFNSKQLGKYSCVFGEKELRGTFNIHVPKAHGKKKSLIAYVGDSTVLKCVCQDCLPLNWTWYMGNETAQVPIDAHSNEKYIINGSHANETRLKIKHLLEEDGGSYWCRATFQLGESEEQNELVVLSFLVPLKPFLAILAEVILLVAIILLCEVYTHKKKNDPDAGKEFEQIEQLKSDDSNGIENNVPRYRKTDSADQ

Work on “83A25 monoclonal antibody (rat IgG2a, anti-gp70)” yielded a Mean OD [1] of 2.43 OD, a Mean OD [2] of 2.31 OD and a Mean OD [3] of 2.27 OD. For the same substance, the Mean OD [4] was 1.89 OD, the Mean OD [5] was 1.7 OD and the Mean OD [6] was 1.89 OD. The Mean OD [7] was 1.7 OD, the Mean OD [8] was 1.85 OD and the Mean OD [9] was 1.88 OD. The Mean OD [10] was 1.78 OD, the Mean OD [11] was 1.61 OD and the Mean OD [12] was 1.45 OD. For the same substance, the Mean OD [13] was 1.84 OD, the Mean OD [14] was 1.44 OD and the Mean OD [15] was 0.773 OD. The Mean OD [16] was 0.699 OD, the Mean OD [17] was 0.276 OD and the Mean OD [18] was 0.25 OD. The Mean OD [19] was 0.322 OD, the Mean OD [20] was 0.119 OD and the Mean OD [21] was 0.136 OD. For the same substance, the Mean OD [22] was 0.105 OD, the Mean OD [23] was 0.105 OD and the Mean OD (inter-assay mean) [24] was 0.693 OD. For the same substance, the Mean OD (inter-assay mean) [25] was 0.144 OD and the Mean OD (inter-assay mean) [26] was 0.118 OD.
